These results are taken from patent US20250074943A1 (Amgen, published 2025).

Numbered stars: 1 amine (or outer) side, 2 acyl side, 3 side chain; on linkers, the order of the positions; unused ones are H or OH. Bridge positions count the residues as written; N and C are the ends. Primed or numbered codes have the meaning given here. Ends that are not written are not given here. K(PEG4-DBCO-FEA) = Lys whose side chain carries PEG4-DBCO conjugated to fluoroethylazide (FEA); Ttds = non-peptide spacer, O=C(CCC(=O)[*:2])NCCCOCCOCCOCCCN[*:1]; Ttds″ = trioxatridecan-succinamic acid linker

Assay [1] has as its target T1, recombinant DLL3 ectodomain (rhDLL3-Fc) (human, UniProt Q9NYJ7 27-492, biotinylated (NHS-LC-LC-biotin) in the BLI and SPR assays).
T1 construct: also called rDLL3-Fc; recombinant human DLL3 (rDLL3); not shown: Fc part
T1 sequence: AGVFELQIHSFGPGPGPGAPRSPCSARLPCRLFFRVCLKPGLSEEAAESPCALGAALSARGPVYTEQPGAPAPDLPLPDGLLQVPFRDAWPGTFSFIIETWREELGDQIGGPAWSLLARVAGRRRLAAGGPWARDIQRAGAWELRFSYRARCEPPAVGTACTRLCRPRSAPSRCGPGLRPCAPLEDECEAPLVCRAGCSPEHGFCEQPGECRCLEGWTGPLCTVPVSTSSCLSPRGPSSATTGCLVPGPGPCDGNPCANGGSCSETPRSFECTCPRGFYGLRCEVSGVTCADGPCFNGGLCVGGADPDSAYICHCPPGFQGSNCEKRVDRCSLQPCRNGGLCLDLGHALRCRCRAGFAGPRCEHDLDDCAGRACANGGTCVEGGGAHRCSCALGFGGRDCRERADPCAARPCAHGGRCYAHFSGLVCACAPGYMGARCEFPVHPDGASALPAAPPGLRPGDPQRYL
The assay is described as follows: SPR (Biacore), biotinylated rhDLL3-Fc on SA chip. In general terms: SPR reads the build-up and loss of mass on a sensor chip optically.

The target in assay [2] is T1, recombinant DLL3 ectodomain (rhDLL3-Fc). The assay is described as follows: SPR off-rate, single point (300 nM peptide), biotinylated rhDLL3-Fc on SA chip. On the procedure: The off-rate screening of the peptides was done using a Biacore T200 instrument (Cytiva, Sweden). […] Peptides were diluted at 300 nM in PBS-P+1× buffer (Cytiva, Sweden) supplemented with 1% DMSO and 0.1% BSA, then injected over the ligand for five minutes at 30 μl/min, finally dissociation allowed for 1 h. Sensorgrams were analyzed by Biacore T200 Evaluation Software 3.0 (Cytiva, Sweden): specific binding was obtained by subtracting unspecific binding to naked biosensors and a zero analyte concentration made of binding assay buffer (double referencing). Kinetic parameters of koff were measured using a global fitting according to 1:1 Langmuir binding isotherm equation.

For assay [3] the target is unchanged. The assay is described as follows: kinetic assay, method not told for this table (BLI, SPR or flow cytometry). (In flow cytometry, cells or beads pass a laser one at a time.)
For assay [4] the target is unchanged. As to the kind of experiment: BLI (Octet), biotinylated rhDLL3-Fc on streptavidin sensors. On the procedure: (§1) Binding kinetic assays were performed using Bio-layer interferometry (BLI) technology. The recombinant DLL3 ectodomain (rhDLL3-Fc) was biotinylated using EZ-Link Sulfo-NHS-LC-LC-Biotin Kit according to the manufacturer's protocol (Pierce by Thermo Fisher Scientific). The recombinant protein was incubated with an excess of NHS-LC-LC Biotin ester, in a molar ratio of 1:3 (protein: biotin), at 25° C. for 90 min. The un-reacted biotin ester was removed by subsequent buffer exchange on 0.5 ml Zeba spin desalting columns 7K MWCO (Pierce by Thermo Fisher Scientific).
Background: In BLI a coated tip is dipped into the sample, and binding shifts an interference pattern.

Assay [5] has the same target. The assay is described as follows: BLI (Octet), biotinylated rhDLL3-Fc on streptavidin sensors; second listing of 1161 in Table 4, rounded. On the procedure:
as §1

The target of assay [6] is T2, human FLT3 expressed on CHO cells (human, UniProt P36888 27-993).
T2 construct: whole, on cells; Negative control cell line; also called CHO huFLT3; CHO huFTL3
As to the kind of experiment: flow cytometry, biotin-labelled PepSP1462 detected with anti-streptavidin-AF488 antibody.
Procedure: (§2) Peptide PepSP1462, identified herein was biotin labeled. The biotin labeled peptide was detected using an anti-streptavidin antibody conjugated to AF488. The AF488-labeled peptide was detected directly.
(§3) Binding specificity of the labeled peptide for DLL3 was assessed using DLL3-negative cell lines. […] Cells were then washed twice with FACS buffer and incubated with an anti-streptavidin antibody conjugated to AF488 (Thermo Fisher). […] Cells were then washed twice with FACS buffer an resuspended in FACS buffer that contained 0.5 μg/ml propidium iodide. Cells were analyzed by flow cytometry, using an LSR Fortessa and FACSDiva software (Becton Dickinson) or Flow Jo (Flow Jo LLC).

The target of assay [7] is T3, mouse DLL3 expressed on CHO cells (mouse, UniProt O88516 33-592).
T3 construct: whole, on cells; also called CHO muDLL3
T3 sequence (looked up): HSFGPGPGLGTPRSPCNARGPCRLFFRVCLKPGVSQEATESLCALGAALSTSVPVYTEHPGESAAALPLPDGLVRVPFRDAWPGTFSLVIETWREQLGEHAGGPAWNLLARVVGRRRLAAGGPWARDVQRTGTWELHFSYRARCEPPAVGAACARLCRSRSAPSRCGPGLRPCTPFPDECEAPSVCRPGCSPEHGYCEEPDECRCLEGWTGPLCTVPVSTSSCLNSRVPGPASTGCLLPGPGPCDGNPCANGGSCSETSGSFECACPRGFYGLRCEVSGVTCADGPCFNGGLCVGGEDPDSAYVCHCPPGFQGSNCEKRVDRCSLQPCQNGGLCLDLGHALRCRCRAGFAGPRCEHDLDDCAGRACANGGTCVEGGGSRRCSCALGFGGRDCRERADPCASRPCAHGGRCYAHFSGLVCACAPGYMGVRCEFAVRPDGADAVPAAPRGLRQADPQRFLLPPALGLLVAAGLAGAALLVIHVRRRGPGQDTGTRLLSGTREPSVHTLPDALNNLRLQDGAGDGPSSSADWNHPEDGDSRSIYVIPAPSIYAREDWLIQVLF
The assay is described as follows: flow cytometry, 100 µM biotin-labelled PepSP1462 detected with anti-streptavidin-AF488 antibody; CHO huFLT3 as negative control cell line.
Procedure: as §2, §3

In assay [8] the target is T4, rat DLL3 expressed on CHO cells (rat, UniProt O88671 33-589).
T4 construct: whole, on cells; also called CHO rtDLL3; High CHO rtDLL3
T4 sequence (looked up): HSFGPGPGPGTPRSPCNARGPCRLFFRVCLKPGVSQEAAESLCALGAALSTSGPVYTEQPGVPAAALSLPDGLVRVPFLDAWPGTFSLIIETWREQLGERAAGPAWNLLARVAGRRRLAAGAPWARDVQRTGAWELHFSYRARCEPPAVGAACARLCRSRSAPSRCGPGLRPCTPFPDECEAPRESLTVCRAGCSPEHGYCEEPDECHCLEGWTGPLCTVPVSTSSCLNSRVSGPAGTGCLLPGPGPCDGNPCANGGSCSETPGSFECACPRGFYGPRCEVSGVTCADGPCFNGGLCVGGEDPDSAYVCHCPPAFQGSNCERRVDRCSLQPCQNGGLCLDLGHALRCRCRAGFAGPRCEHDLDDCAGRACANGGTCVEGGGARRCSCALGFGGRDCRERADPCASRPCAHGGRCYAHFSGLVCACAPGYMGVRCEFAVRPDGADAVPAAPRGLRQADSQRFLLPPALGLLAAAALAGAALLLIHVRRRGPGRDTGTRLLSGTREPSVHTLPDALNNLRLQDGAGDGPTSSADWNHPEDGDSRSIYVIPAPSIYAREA
The description is as above.
Procedure: as §2, §3

B1: PepSP1489 (peptide)
peptide: Ac-AETVEFWWCNGNSENWTCTWGG-{Ttds″-K(Ttds-Ttds-PEG3)}
modifications: disulfide 9-18 (inferred); also: dimer linked via PEG4-DBCO
notes: also called PspSP1489
As for B1, in assay [1], the Kd (as a rule, the equilibrium constant for the complex coming apart) was found to be 3.3 nM; the koff – broadly, the rate constant with which the complex falls apart – is 0.00037 s⁻¹; the kon (in general, the rate constant with which the complex forms) was 110000 M⁻¹ s⁻¹.

B2: PepSP1581 (peptide)
peptide: Ac-AETVEFWWCNGNSENWTCTWGG-{Ttds″-K(PEG3)}
modifications: disulfide 9-18 (inferred); also: dimer linked via PEG4-DBCO-FEA
notes: also called dimeric FEA derivative of PepSP1487
On to B2, for which the koff in assay [2] was 3.4e-05 s⁻¹.

B3: PepSP1538 (peptide)
peptide: Ac-AETVEFWWCNGNSENWTCTWGG-{Ttds″-K(PEG4-DBCO-FEA)-NH2}
modifications: disulfide 9-18 (inferred)
notes: also called monomeric Fluoroethylazide (FEA) derivative of PepSP1462
B3: the off-rate constant (koff) in assay [2] amounted to 0.0039 s⁻¹.

B4: PepSP1324 (peptide)
peptide: Ac-AETVEFWWCNGNSENWTCTWGG-{Ttds-Lys-NH2}
modifications: disulfide 9-18 (inferred)
With B4, the RT in assay [3] stood at 189.

B5: PepSP1161 (peptide)
peptide: AETVEFWDCWGNTDDWTCTW-NH2
modifications: disulfide 9-18 (inferred)
As to B5, in assay [4], the Kd is 42.5 nM and the “RT (residence time)” value was 87.8 s. Moreover, the Kd in assay [5] is 43 nM.

B6: PepSP1583 (peptide)
peptide: Ac-AETVEFWWCNGNSENWTCTWGG-{Ttds″-K(Ttds-Ttds-PEG3)}
modifications: disulfide 9-18 (inferred); not fully specified; printed as [Ac-AETVEFWWCNGNSENWTCTW-GG-Ttds-K(Ttds-Ttds-PEG3)]2-PEG4-DBCO-; also: dimer linked via PEG4-DBCO-FEA
notes: also called dimeric FEA derivative of PepSP1489
Take B6: the koff in assay [2] came out at 3.2e-05 s⁻¹.

B7: PepSP1582 (peptide)
peptide: Ac-AETVEFWWCNGNSENWTCTWGG-{Ttds″-K(PEG4-PEG3)}
modifications: disulfide 9-18 (inferred); also: dimer linked via PEG4-DBCO-FEA
notes: also called dimeric FEA derivative of PepSP1488
With B7, the koff in assay [2] is 3.6e-05 s⁻¹.

B8: PepSP1342 (peptide)
peptide: Ac-AETVEFWWCNGNSENWTCTWGG-{Ttds-K(Ttds-Ttds)-NH2}
modifications: disulfide 9-18 (inferred)
notes: also called PspSP1342
With B8, in assay [3], the RT was found to be 199.

B9: PepSP1462 labeled with biotin (peptide)
peptide: Ac-AETVEFWWCNGNSENWTCTWGG-{Ttds-K(PEG4-DBCO)-NH2}
modifications: disulfide 9-18 (inferred); also: biotin label, site of attachment not given here
notes: also called PepSP1462-biotin peptide; labeled PepSP1462 peptide
As to B9, the binding result was “no binding (tested: 100 µM)” in assay [6], “binds” in assay [7] and “binds” in assay [8].

B10: PepSP1321 (peptide)
peptide: Ac-AETVEFWGCTGTWGNETCWWGG-{Ttds-Lys-NH2}
modifications: disulfide 9-18 (inferred)
B10: the RT in assay [3] stood at 369.

B11: PepSP1488 (peptide)
peptide: Ac-AETVEFWWCNGNSENWTCTWGG-{Ttds″-K(PEG4-PEG3)}
modifications: disulfide 9-18 (inferred); also: dimer linked via PEG4-DBCO
notes: also called PspSP1488
As to B11, in assay [1], the Kd amounted to 2.6 nM, the off-rate constant (koff) turned out to be 0.00031 s⁻¹ and the on-rate constant (kon) worked out at 120000 M⁻¹ s⁻¹.
